These results are taken from publication PMC10957913, “GAS41 modulates ferroptosis by anchoring NRF2 on chromatin” (Nature Communications, 2024).

The target in the assay is T1, Flag-tagged GAS41, purified (human, UniProt O95619 1-227).
T1 construct: GAS41, human, full-length cDNA amplified from A549 cDNA; also called purified GAS41 proteins
Briefly: pull-down; GST or GST-NRF2 fragments on GST Bind Resin incubated with purified GAS41 in BC200 buffer for 4 h at 4 °C, washed six times with BC200; western blot. The note with it: both partners purified. Background: Immunoblotting shows a protein as a band on a membrane.

T1 sequence (O95619 whole entry): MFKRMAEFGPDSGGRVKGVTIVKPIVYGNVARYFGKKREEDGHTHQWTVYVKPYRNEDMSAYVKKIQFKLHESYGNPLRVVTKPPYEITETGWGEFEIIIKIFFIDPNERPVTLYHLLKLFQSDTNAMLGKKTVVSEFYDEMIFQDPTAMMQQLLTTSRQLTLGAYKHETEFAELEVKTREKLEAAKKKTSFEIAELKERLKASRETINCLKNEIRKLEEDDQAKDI

B1: GST-NRF2-CT (Neh1 and Neh3 domains of NRF2, AA. 434-605) (domain or fragment, UniProt Q16236 434-605, looked up)
chain: PGHRKTPFTKDKHSSRLEAHLTRDELRAKALHIPFPVEKIINLPVVDFNEMMSKEQFNEAQLALIRDIRRRGKNKVAAQNCRKRKLENIVELEQDLDHLKDEKEKLLKEKGENDKSLHLLKKQLSTLYLEVFSMLRDEDGKPYSPSEYSLQQTRDGNVFLVPKSKKPDVKKN
notes: NRF2, Neh1 and Neh3 domains, amino acids 434-605; That the 434-605 fragment is the construct called GST-NRF2-CT in the methods is inferred
B1: the binding result is on record as “binds”.
